# Test results as given in patent US20160152676A1.
# Biological target: gp41 of HIV-1 IIIB virus (HIV-1 IIIB) (UniProt P04578)
# Test: cell-based or functional assay
substance,measurement,value
C34-ELMO (from UniProt Q92556 553-675) (designed binder),"inhibition of HIV-1 infection in cellulo (GFP+ CEM-GFP cells, flow cytometry); concentration at which some inhibition is seen",250 nM
